Test: soluble on expression in E. coli; label from the status in PepcDB or PDB records

| Sequence | soluble on expression in E. coli |
| --- | --- |
| MAHHHHHHMAKEYPILVVPCKRGGIPCLTPDQARAILNEEERVISVSIFDASEFVDPCKKANQGFAEFCGLGEFRTILTVRSPHIGMHASAPATDAGLCANHEKGRISLGMDKWKEMVLPLRPEIAIPPYDSVSINEPQKKRRRTAMTRSAKWATSADSLQGNGNCKLMKPLCAAENNGEFVFLEELCQNETLQQYTYHVKEAINKGQVMSTAISLPSLLICLKYNVCFIESAIPWILAEKGIGLVFDFNPVSGVSPARYETQIDLNDDCFTKDIRPLSPDCNCYTCKRHMRAYIHHLLTVQEMNSKTLLVIHNLTRLIQLVRLYRILDAEDREALLNWLFAQF | not soluble |
| MAHHHHHHMAKTVDNAALLAEIDQLRRLIAEKEALITPDGGSLSKKSKKKSQMNMVETEPVQGCRDFPPETMRLRKYLFDVFHSTARKFGFEEYDSPVLESEELYIRKAGEEITEQMFNFITKGGHRVALRPEMTPSLARQLLAKGRSLLLPAKWYSIPQCWRYEAITRGRRREHYQWNMDIIGVKSVSSEVELVCAACTAMQSLGLSSKDVGVKINSRKILQTVVEQAGVSADKFAPVCVIVDKMEKLPREEVVAQLAAIGLESNVVDAITSTLSLKTIDEIAQRIGEEHEAVRELRDFITQIEAYGFGDWVIFDASVVRGLAYYTGIVFEGFDRDGNFRALCGGGRYDNLLTTYGSPTAVPCVGFGFGDCVIVELLNEKKLLPELHHVVDDLVIPFDETMRPHALSILRRLRDAGRSADIVFDKKKVVQAFNYADRIGALRAVLVAPDEWARGEVRVKMLREGAGREEGANERGIVLPVDKIV | not soluble |
| MAHHHHHHMANAELVDAGCFITQMNELLLIDPLYLNCAMTNYCNSYLSGKEELLPRERLNGIYFKNAKPGLWSSFAIRENSQAHLKKTAKQETETDAANRNDKNTYNNIRNEMVLSFVCFNNTNYMHQYLTVEEVDKLHWERMEPSEGHPGVGPTDKCSSTVDGDSKNEKVANFHNDRSELLPLENYFTNVLTIESGQAGLFCIDSIKNSADLLFQKHGMKNISSREQLDILFNQNMNDLYPWFDQICNLTMTSSVAVVDFMGMPIGCVCLSSSDCVVNYLCEVVRDEVTDEVWAIRVNFLAPLK | not soluble |
| MAHHHHHHMANNNMDDINLECENDNDNKISSEKRLVDEIIENNIEEIKKKEKDNKEKDNKEKDNKEKDIMFNIKNGLCDLEKTLDGEGYAYSNLTCRKKGIDFIPKSITRYIHLKYINLSHNNINDLVHLYFLPNIIFLDVSYNMLKEIVELKKEYLKNCIYINLSHNLISHMNNIFLKNLLEFNISYNTINNINIYISNTIRILNLSNNNIKNINFKNKLNNLLDLDISFNPIENLDFHTLMPNLVVLRINDNSTISMDKLNNLNNFKCLQSLFMQNYLYFKDISYKDVKEILLQNSKDIHLLKFNGNRLNKKTDHIEQADVNK | soluble |
| MAHHHHHHMARDYDAGYKLLFAMPEMMRDLLREFIRSDWLRALDYSTLERVSGNYVADNMRQRASDMVWRVDAGDPWGHLYVLLEFQSTIDRYMAPRMAAYTALLHQELVRAGQVLPDRRVPAALSIVLYNGDTPWSACTNIRDVVVSLPNGLAACQLHQQHTLLDINRLSEAQLPDDNLAALLFRIERAADYDTVVSLMIECRMRLRHEPKLKLAFAKTFAALLCGQRGSVLTPDQVFQLMEVDMQVVGANLQRFTHKLREEARQEGEARMLQKLLAERFGSLHASVVQRIEIATPEELERWGIQLLRAEVIEDVFRA | soluble |
| MAHHHHHHMASLTVPAHVPSAAEDCEQLRSAFKGWGTNEKLIISILAHRTAAQRKLIRQTYAETFGEDLLKELDRELTHDFEKLVLVWTLDPSERDAHLAKEATKRWTKSNFVLVELACTRSPKELVLAREAYHARYKKSLEEDVAYHTTGDHRKLLVPLVSSYRYGGEEVDLRLAKAESKILHEKISDKAYSDDEVIRILATRSKAQLNATLNHYKDEHGEDILKQLEDGDEFVALLRATIKGLVYPEHYFVEVLRDAINRRGTEEDHLTRVIATRAEVDLKIIADEYQKRDSIPLGRAIAKDTRGDYESMLLALLGQEED | soluble |
| MAHHHHHHMATIGMFNEEGENVDLYIPRKCHATTTLIEAHDHAAVQISIANVGPNGVINGTTTTLCIAGYLRSQGESDHAINHITIDRGIMRIKTGKPKRASKSKSKKPAAKGAAAGAAAQKGARPPAQKGARPPAQKGARPPAQKGARPPAQKGARPPAQKGAAPARKNRA | soluble |
| MAHHHHHHMCDTANEADGKKLNKKAKSISVVKFKDKEKKKFVSLSSKEETSVQDLPLGCPVCYVPLTVDFNLLNQVEEQDEEEMIVCKEETTYINKSFINRINTNEYRSSTKIEAVFEEVKNVIHTTDDKCLIFSQYCSMLDLIEYHLKKHNIICSKLLGYMPMVSRNNILYNFNEDKHLRVLLISLKAGGEGLNLQVANRIFIVDPWWNPAAELQAIQRAHRIGQTKTVYATRFIIENTVEEKIVQLQNKKQLVFDCTIGDSGNAMQKLTKEDLAFLFHA | not soluble |
| MAHHHHHHMCEKDDITVNEEILQKAQEFQVENEKDIKMKKLKPITEGLLKPEVDLLQISERGSRGRVKICNVLNVPRSEKEYNNNNSDKVENKYIGKIITVCGWSKAIRKQGGGRFCFVNLNDGSCHLNLQIVVNQCIENYEKLLKCGAGCCFRFTGELIISPVQNDNNKKGLLKENVELALNNNDIHNFEIYGENLDPQKYPLSKKNHGKEFLREVAHLRPRSYFISSVIRIRNSLSIATHLFFQSRGFLYIHTPLITTSDCEGGGEMFTVTTLLNENGDIRSIPRINLKNKKKEKREDILNEKNGKKDHMNDSLNNNTCNNNNNNGNSSSSNIVSSPQYEDNYLIDYKKDFFSKQAFLTVSGQLSLENLCSSMGDVYTFGPTFRAENSHTSRHLAEFWMIEPEIAFADLYDNMELAEAYIKYCIDYVLNNNFHDIYYFEENVETNLIKRLKNILNEDFAKITYTNAIEILQNYSDSFEVKVEWGMDLQSEHERFIAEKIFKKPVIVYNYPKDLKAFYMKLNEDNKTVAAMDVLVPKIGEVIGGSQREDNLERLDKMIKEKKLNIDSYWWYRQLRQYGSHPHAGFGLGFERLIMLVTGVDNIKDTIPFPRYPGHAEF | soluble |
| MAHHHHHHMDSTYKEPSSAAVPTSYAVLSLPSKATMRRKGYNPDEVNYNGGLATHPLATWKTFSLPDGCTYKDAVSAVQTANAKPWGPIKIRLNFSDGRYEQFERVAPSVMDSLQSTTTYSPNDAFKAETLSLSTMRRAQQQPRLRPLVDERGHHLSNKPIPRTFAPEELYKNCPPPVLSQPGYDFTPISYNTFLLNPQDPPHGVRNVQSNFMHSSCDYRPRSYLRPEQATGTSHASRHCHCNEVFQVGDHTMDFACEGTTVDHRNRLVKKDYSPVGTLKANSSIVGRRHARKPRFGCTGVADSQTVAAAVAPAADEETA | soluble |
| MAHHHHHHMDTDKIKKRINAYNQDGIRNSALAIILCHRYEYPHLLLLQNIESQTYHLLSGKYKSWEKPREVLKKKLQKYVNQIRDMHFGTSHFNTEEKETEDPIEIGEFLGEWWKTQFNSVYLPYLPAHITRPKEYIRLYQVTLTSRCIFHLPPGFTLKALPLFDLSTCGVAIGGLTSVLSRFKLHCMVPVEE | not soluble |
| MAHHHHHHMDVKLGTIISRFTFTLPSLYDDGRDDYDATVSSPDDAATEESCGVAFTSGTHCDEARKTPKTTQAGSRSHVARFGAPASPTEKLDITGAYAFVSHGGAASSASLAAPSSPPPLLGRAAARGDRNNSTVAAPQHDVGDRGGGAVRYGTSLHLPDLVQLAAHAWNVELHCGSTGAASHCVLRLPPFVLGSTLYRGPVVYVLASGVVRMATHGSVAATELLARRVRDALHEACKPLAVRRAAREELLLMRAVLEDSLSDMLEDEGGEEGPARHLCTAVLKAEARLPSSGVSLSTALAADTAMSSQHGRRAAFGSSAAAARIGPMARDKAGHGLPTLVSTPSVLSARGCKIDFLQAVATPRWDEIVGLRASLFAPASAAPGSENSGGGGVAKADRDAEGAPRVSVRRASVNVRGDAPMEWWRWYLGVQADDHGVGGGDGSGAARRGGGAPSAAAANSEEPFPGDCSGVPLLGSWLSGDASEGGNADARSSNKTTGFWTCAGYADASPENAASFVHFLQRRRALLAHHVASFKLRRQATQNSLQILLDWRTATPPTPPAPPAPLSAAAAPLMGRPPLARALVGHPMAVAQPLPDSGTPSVPAAPTRTNISGNTWVTEASAANFFMESTFIAESAAPFELESVRMPTDRMSSADPALPVSMALGDRNVANPCGSTALAPDSGCGSMSALLEPSVGHSVLRYDSSSSKDDRTAAKAAPEKRMRGVAAAQASAANRDEAASAAMEHVTCLIHRTGRVQMTAASELALRQMCAMLLIPFLVATAEVEL | not soluble |
| MAHHHHHHMEEHPKILSIAGSDSCAGAGMQADLKTAMSLGCHCCTILVVLTAQNTKEVKSIIEVDEKFIVEQLDAIFTDITIEVVKLGVLYSKKIISLIHNYITNINKMREKKLLVVFDPVFVSSSGCMLVENLDYVKYALDLICPLSCIITPNFYECKVILEALNFNIDINNMRTSDLCKLVTEKLNINACLFKSCNIDINTEDENKLYAVDHLCIKNDNDYDTKIKQNISYDVYKLKSKRNPQKDIHGTGCTLSTAISCFLSKKYDIIQACIESKKYIYNCINYAYDLGSKSQGLNHLKAAQHLTDFRELQVIKVD | soluble |
| MAHHHHHHMEFLVADAERMYTVNGRLQHLSYWSYKILARSFLESYQNPPLLNSNRAAQNFSKGSGYVDFCTWHRYSEFEWLAAQVELEFPGMLFPPIPSKETDGTVDKFTELLTSVKENNSTTRENPLVKKRMRHLQLTFNAIAQLHELHESPLLKAFVTLDELSWCAFREEREKKMKTSILTIFKAKGLSIIAKLRSFRESSNHDYTLDSPLDSVATRQSDLGELLNTCFAQVEYINKYCISEWRHWSDVNKLRGSIQGSPMPWTACYGGHHVQHSKHPGLEGVVREINNDAAVVEWNGQGGKLSKVPLDELNYPSSGISDPAIFALQELASQVESYFMYLSRSSGVAVLRDVEDLLWFLSSYANRCVRVIRRFREMRSEVRYLTRVVEKKASVEQFEQLERLKQILSKGTSRFMEQYNNFYRCFMRNSLMEVAHKFGRVITVIMSDDQWNERLSVAKTMLTLSLPLLPEEREEIFAEDASKRDSPPMKQVNGLEG | soluble |
| MAHHHHHHMEGEEYDKILVLNFGSQYFHLIVKRLNNIKIFSETKDYGVELKDIKDMNIKGVILSGGPYSVTEAGSPHLKKEVFEYFLEKKIPIFGICYGMQEIAVQMNGEVKKSKTSEYGCTDVNILRNDNINNITYCRNFGDSSSAMDLYSNYKLMNETCCLFENIKSDITTVWMNHNDEVTKIPENFYLVSSSENCLICSIYNKEYNIYGVQYHPEVYESLDGELMFYNFAYNICKCKKQFDPIRYHELELKNIEKYKHDHYVIAAMSGGIDSTVAAAYTHKIFKERFFGIFIDNGLLRKNEAENVYTFLKSTFPDMNITKIDASENFLSNLQGVTDPEQKRKIIGKLFIEEFEKAVNNIDIDINKTFLLQGTLYPDIIESKCSKNLSDTIKTHHNVGGLPKNLKFKLFEPFKYLFKDDVKTLSRELNLPEEITNRHPFPGPGLAIRVIGEINKHKLNILREVDDIFINDLKQYGLYNQISQAFAVLLSSKSVGVRGDARSYDYVCVLRAVKTSSFMTANWYQIPYDILDKITTRILSEVKGVNRILYDVSSKPPATIEFE | soluble |
